Measured values published in IntAct's records for PubMed 19804756.

B1: DNA endonuclease ctp1 (Schizosaccharomyces pombe (strain ATCC 38366 / 972)), O74986 (parent)
chain: MNEEEHNKSVHWSIVYRQLGNLLEQYEVEIARLKSQLVLEKKLRIQVEKELESVKTKQISSSASSKVSSNTIQELDSTTDEDEIPGSDTVDEEDPSLNAPFSEKNQSVKIPPHSPTLPVQNASAFVKPISVPLGNVKEEKFLDTNPIGAESFESSDGEMHLRARSPEDMILLRETQPLAPLDINTLGVSDNRQKKGTEKKRPFEPEFLNDDVIRGNKRKALPAYECPDCQKFYELHGPVKESSVAPTWNDENRLGGGSLPNCKHQPLVQKVGRHRKLNIPKPIPNGFWESDFVD
partner: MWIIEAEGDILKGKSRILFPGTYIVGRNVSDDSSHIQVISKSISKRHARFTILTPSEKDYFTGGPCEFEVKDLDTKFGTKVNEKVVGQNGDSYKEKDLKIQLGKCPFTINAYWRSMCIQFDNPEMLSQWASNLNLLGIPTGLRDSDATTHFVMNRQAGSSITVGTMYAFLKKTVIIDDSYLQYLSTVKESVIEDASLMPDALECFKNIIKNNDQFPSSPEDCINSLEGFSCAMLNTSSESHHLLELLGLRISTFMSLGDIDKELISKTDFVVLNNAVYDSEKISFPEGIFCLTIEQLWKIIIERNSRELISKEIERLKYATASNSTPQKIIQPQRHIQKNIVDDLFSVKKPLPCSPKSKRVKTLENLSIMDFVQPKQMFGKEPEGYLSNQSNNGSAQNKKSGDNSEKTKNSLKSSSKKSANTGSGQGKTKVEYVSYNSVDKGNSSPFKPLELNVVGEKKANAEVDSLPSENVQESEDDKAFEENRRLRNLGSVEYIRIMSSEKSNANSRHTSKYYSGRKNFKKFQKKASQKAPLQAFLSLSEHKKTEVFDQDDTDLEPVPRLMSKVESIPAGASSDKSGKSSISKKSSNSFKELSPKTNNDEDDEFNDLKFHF
B2: DNA repair and telomere maintenance protein nbs1 (Schizosaccharomyces pombe (strain ATCC 38366 / 972)), O43070 (parent)
chain: B1 partner
B3: Nibrin (Homo sapiens), O60934 (parent)
chain: MWKLLPAAGPAGGEPYRLLTGVEYVVGRKNCAILIENDQSISRNHAVLTANFSVTNLSQTDEIPVLTLKDNSKYGTFVNEEKMQNGFSRTLKSGDGITFGVFGSKFRIEYEPLVACSSCLDVSGKTALNQAILQLGGFTVNNWTEECTHLVMVSVKVTIKTICALICGRPIVKPEYFTEFLKAVESKKQPPQIESFYPPLDEPSIGSKNVDLSGRQERKQIFKGKTFIFLNAKQHKKLSSAVVFGGGEARLITEENEEEHNFFLAPGTCVVDTGITNSQTLIPDCQKKWIQSIMDMLQRQGLRPIPEAEIGLAVIFMTTKNYCDPQGHPSTGLKTTTPGPSLSQGVSVDEKLMPSAPVNTTTYVADTESEQADTWDLSERPKEIKVSKMEQKFRMLSQDAPTVKESCKTSSNNNSMVSNTLAKMRIPNYQLSPTKLPSINKSKDRASQQQQTNSIRNYFQPSTKKRERDEENQEMSSCKSARIETSCSLLEQTQPATPSLWKNKEQHLSENEPVDTNSDNNLFTDTDLKSIVKNSASKSHAAEKLRSNKKREMDDVAIEDEVLEQLFKDTKPELEIDVKVQKQEEDVNVRKRPRMDIETNDTFSDEAVPESSKISQENEIGKKRELKEDSLWSAKEISNNDKLQDDSEMLPKKLLLTEFRSLVIKNSTSRNPSGINDDYGQLKNFKKFKKVTYPGAGKLPHIIGGSDLIAHHARKNTELEEWLRQEMEVQNQHAKEESLADDLFRYNPYLKRRR

Variants of: B1
Conditions: with nbs1_schpo nbs1, O43070

Variant | effect of a mutation on the interaction
MNEEEHNKSVHWSIVYRQLGNLLEQYEVEIARLKSQLVLEKKLRIQVEKELESVKTKQISSSASSKVSSNTIQELASTTDEDEIPGSDTVDEEDPSLNAPFSEKNQSVKIPPHSPTLPVQNASAFVKPISVPLGNVKEEKFLDTNPIGAESFESSDGEMHLRARSPEDMILLRETQPLAPLDINTLGVSDNRQKKGTEKKRPFEPEFLNDDVIRGNKRKALPAYECPDCQKFYELHGPVKESSVAPTWNDENRLGGGSLPNCKHQPLVQKVGRHRKLNIPKPIPNGFWESDFVD [D76A] | increasing interaction

Variants of: B2
Conditions: with mdc1_human MDC1, Q14676
Target sequence in this assay (Q14676 whole entry): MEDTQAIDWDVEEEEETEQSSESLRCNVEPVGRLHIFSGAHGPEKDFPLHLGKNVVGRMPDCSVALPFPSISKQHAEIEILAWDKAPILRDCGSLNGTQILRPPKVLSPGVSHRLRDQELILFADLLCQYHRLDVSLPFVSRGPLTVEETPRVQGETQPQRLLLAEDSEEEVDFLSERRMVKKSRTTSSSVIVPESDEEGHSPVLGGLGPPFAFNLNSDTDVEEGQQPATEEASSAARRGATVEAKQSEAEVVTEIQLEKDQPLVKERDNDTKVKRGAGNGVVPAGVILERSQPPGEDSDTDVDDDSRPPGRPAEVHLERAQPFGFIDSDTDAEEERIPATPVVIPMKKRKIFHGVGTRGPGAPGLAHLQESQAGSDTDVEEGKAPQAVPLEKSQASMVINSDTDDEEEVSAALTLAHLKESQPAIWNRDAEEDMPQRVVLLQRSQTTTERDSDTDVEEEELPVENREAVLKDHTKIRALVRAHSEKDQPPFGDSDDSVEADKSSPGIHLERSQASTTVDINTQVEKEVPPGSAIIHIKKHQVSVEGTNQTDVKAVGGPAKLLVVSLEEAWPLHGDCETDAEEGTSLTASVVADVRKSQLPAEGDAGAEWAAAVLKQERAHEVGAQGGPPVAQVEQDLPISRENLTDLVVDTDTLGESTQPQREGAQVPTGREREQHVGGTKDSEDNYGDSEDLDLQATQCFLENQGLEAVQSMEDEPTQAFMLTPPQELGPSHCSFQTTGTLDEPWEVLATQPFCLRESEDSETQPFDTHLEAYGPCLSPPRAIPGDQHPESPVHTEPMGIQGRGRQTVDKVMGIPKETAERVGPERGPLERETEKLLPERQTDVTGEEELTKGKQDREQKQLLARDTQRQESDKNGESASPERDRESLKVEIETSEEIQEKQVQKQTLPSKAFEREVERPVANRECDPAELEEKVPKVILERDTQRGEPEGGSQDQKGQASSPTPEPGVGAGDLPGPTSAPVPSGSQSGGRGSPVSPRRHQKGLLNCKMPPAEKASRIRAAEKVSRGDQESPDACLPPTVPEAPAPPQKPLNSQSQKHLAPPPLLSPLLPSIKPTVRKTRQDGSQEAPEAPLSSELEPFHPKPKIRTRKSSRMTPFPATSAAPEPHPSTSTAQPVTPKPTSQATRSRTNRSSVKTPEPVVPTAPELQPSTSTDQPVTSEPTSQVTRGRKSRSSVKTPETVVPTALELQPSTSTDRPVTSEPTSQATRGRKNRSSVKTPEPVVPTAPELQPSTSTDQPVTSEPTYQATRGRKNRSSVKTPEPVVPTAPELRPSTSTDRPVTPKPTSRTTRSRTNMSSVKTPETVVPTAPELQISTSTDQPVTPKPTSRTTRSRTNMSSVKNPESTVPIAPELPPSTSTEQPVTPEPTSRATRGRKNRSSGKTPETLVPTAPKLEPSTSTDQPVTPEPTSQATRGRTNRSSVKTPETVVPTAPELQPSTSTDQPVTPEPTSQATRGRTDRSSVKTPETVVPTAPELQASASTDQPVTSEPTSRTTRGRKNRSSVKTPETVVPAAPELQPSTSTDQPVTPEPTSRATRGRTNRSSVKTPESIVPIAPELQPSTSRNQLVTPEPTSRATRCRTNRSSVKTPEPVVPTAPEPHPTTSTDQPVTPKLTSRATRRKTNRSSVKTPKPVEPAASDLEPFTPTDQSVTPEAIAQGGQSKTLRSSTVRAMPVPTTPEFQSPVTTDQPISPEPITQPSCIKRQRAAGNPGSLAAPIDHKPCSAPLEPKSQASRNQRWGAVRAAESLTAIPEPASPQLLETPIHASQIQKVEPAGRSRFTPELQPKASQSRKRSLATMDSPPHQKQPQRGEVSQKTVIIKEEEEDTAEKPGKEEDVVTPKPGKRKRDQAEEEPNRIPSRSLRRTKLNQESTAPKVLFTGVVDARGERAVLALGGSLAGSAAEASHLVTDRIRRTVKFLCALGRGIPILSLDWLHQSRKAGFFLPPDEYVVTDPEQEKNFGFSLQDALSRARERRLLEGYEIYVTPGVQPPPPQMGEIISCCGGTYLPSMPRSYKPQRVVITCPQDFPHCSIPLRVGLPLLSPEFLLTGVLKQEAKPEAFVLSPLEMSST

Variant | effect of a mutation on the interaction
K76A | decreasing interaction
G103D | decreasing interaction
K45A | decreasing interaction

Variants of: B3
Conditions: with mdc1_human MDC1, Q14676
Target sequence in this assay (Q14676 whole entry): as above

Variant | effect of a mutation on the interaction
S42A;K160M | disrupting interaction
S42A | decreasing interaction
K160M | decreasing interaction
R28A | decreasing interaction
